Reference: the supplement of paper PMC7125110
± gives the standard error. Variants at the floor of the assay were thinned out.

B1: glmS ribozyme (parent)
chain: AUAAAAGCGCCAGAACUACAGAAAUGUAGUUGACGAGGAGGAGGUUUAUCGAAUUUUCGGCGGAUGCCUCCAAA

Tests used:
Settings in all cases: with glucosamine-6-phosphate
glucosamine-6-phosphate [1] = variants of: B1; assay: self-cleavage kobs at 640 uM GlcN6P; higher = faster cleavage; RNA array
Summary of the method: (§1)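 Over ~14 h at 37 °C, tiles were imaged as glucosamine-6-phosphate (40 μM to 10 mM) in HEPES/KCl/Mg(OAc)2 buffer flowed across sequenced MiSeq chips. The chips carried barcoded ribozyme variants transcribed in situ by E. coli RNA polymerase and tracked with a hybridised Cy3 probe. After normalisation to baseline and to non-cleaving reference variants, one- or two-exponential decay fits of per-tile medians gave kobs. kcat and KM followed from weighted Michaelis–Menten fits across concentrations.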

glucosamine-6-phosphate [2] = variants of: B1; assay: self-cleavage kobs at 10000 uM GlcN6P; higher = faster cleavage; RNA array
Summary of the method: as §1

glucosamine-6-phosphate [3] = variants of: B1; assay: self-cleavage kobs at 160 uM GlcN6P; higher = faster cleavage; RNA array
Summary of the method: as §1

glucosamine-6-phosphate [4] = variants of: B1; assay: self-cleavage kobs at 2500 uM GlcN6P; higher = faster cleavage; RNA array
Summary of the method: as §1

Variant	self-cleavage kobs at 640 uM GlcN6P (glucosamine-6-phosphate [1]) [s⁻¹]	self-cleavage kobs at 10000 uM GlcN6P (glucosamine-6-phosphate [2]) [s⁻¹]	self-cleavage kobs at 160 uM GlcN6P (glucosamine-6-phosphate [3]) [s⁻¹]	self-cleavage kobs at 2500 uM GlcN6P (glucosamine-6-phosphate [4]) [s⁻¹]
G7A G38C G59C	< 1e-05	–	–	–
G7A C8A G9A G62A	< 1e-05	< 1e-05	–	–
U46A G51C A52G	< 1e-05	–	< 1e-05	< 1e-05
C50U U56C C67U	–	–	< 1e-05	–
A6U G29A U31A G43C U46G C58G	< 1e-05	–	–	< 1e-05
A6U A15U G40U G43C	< 1e-05	–	–	–
U45G A53C C71U	0.000323 ± 7e-05	–	0.000134 ± 5.7e-05	0.000938 ± 0.00023
A6U G37U A48C C67G	< 1e-05	–	–	< 1e-05
A6U A36C G38U U56C C67G C68G	0.000412 ± 0.0001	–	–	0.000145 ± 4.4e-05
G43C C67U	–	–	< 1e-05	< 1e-05
U57C G62A	–	< 1e-05	< 1e-05	–
A6G A39U C70A	< 1e-05	–	–	–
U49G G60U	< 1e-05	–	< 1e-05	< 1e-05
A6C U47C U54G	< 1e-05	–	–	–
G44A G51U	–	< 1e-05	< 1e-05	–
G7U C8A U30G G44C	< 1e-05	–	–	–
A6U G40C C61U G62C	< 1e-05	–	–	–
A6G C11U G51U	< 1e-05	–	–	–
A6G G40A C67U	< 1e-05	–	–	< 1e-05
A6U G29A G37A G38A A42C G43U G62U C70U	< 1e-05	–	–	< 1e-05
A6U A15C G44U	< 1e-05	–	–	< 1e-05
A6C G7A G29A C71U	< 1e-05	–	–	< 1e-05
U47C G62C	< 1e-05	< 1e-05	< 1e-05	< 1e-05
G62C U65G	< 1e-05	–	< 1e-05	–

Variant	self-cleavage kobs at 640 uM GlcN6P (glucosamine-6-phosphate [1]) [s⁻¹]	self-cleavage kobs at 10000 uM GlcN6P (glucosamine-6-phosphate [2]) [s⁻¹]	self-cleavage kobs at 160 uM GlcN6P (glucosamine-6-phosphate [3]) [s⁻¹]	self-cleavage kobs at 2500 uM GlcN6P (glucosamine-6-phosphate [4]) [s⁻¹]
G43C C61U	< 1e-05	< 1e-05	< 1e-05	< 1e-05
G7A C8A U65C	< 1e-05	–	–	< 1e-05
A6G U31G G37U	< 1e-05	–	–	< 1e-05
A6C G13A G38A C58U	< 1e-05	–	–	–
G7U G9A G40C	< 1e-05	–	–	< 1e-05
A48C C58G C71A	< 1e-05	–	< 1e-05	–
U55C C61U G63U	< 1e-05	–	< 1e-05	< 1e-05
A48G A52C U55C	< 1e-05	–	< 1e-05	–
G7C U46C	< 1e-05	< 1e-05	–	< 1e-05
A6G C50G C71G	0.000369 ± 7.4e-05	–	–	9.48e-05 ± 2.2e-05
A6G C16G G32A	< 1e-05	–	–	< 1e-05
G43A U45A C61G	< 1e-05	–	< 1e-05	–
A6C A14G A36G A52C	< 1e-05	–	–	< 1e-05
G7C A39C G40C G44U	< 1e-05	–	–	–
G43A U65C	< 1e-05	–	< 1e-05	< 1e-05
A6U C16U G40U C67A	< 1e-05	–	–	< 1e-05
A6G A14U C16G U56A	< 1e-05	–	–	–
C61U A64C C67G	–	–	< 1e-05	< 1e-05
A53C U56A G59C G63U	< 1e-05	–	< 1e-05	< 1e-05
G7A G32C G51U	< 1e-05	–	–	–
G7A A52G U57A	< 1e-05	–	–	< 1e-05
G7C A48G U54G	< 1e-05	–	–	–
U57A G60A	–	–	< 1e-05	–
G7U G29U A48C	< 1e-05	< 1e-05	–	< 1e-05

Variant	self-cleavage kobs at 640 uM GlcN6P (glucosamine-6-phosphate [1]) [s⁻¹]	self-cleavage kobs at 10000 uM GlcN6P (glucosamine-6-phosphate [2]) [s⁻¹]	self-cleavage kobs at 160 uM GlcN6P (glucosamine-6-phosphate [3]) [s⁻¹]	self-cleavage kobs at 2500 uM GlcN6P (glucosamine-6-phosphate [4]) [s⁻¹]
A53U G59U C61U G66U	–	–	< 1e-05	< 1e-05
G44U C58A C71A	< 1e-05	–	< 1e-05	< 1e-05
U57C G60U	< 1e-05	< 1e-05	< 1e-05	< 1e-05
A6G C61G C71G	7.45e-05 ± 2.4e-05	–	–	–
A6G C16A G35U A48U	< 1e-05	–	–	< 1e-05
U57G G63C	< 1e-05	–	< 1e-05	< 1e-05
G51A U57C	< 1e-05	< 1e-05	< 1e-05	< 1e-05
G7U G9A A14U U55C	< 1e-05	–	–	–
G62U C68G	< 1e-05	< 1e-05	< 1e-05	–
G7C C10A G13A G37A U45A	< 1e-05	–	–	< 1e-05
A6U G9C C16G C71U	< 1e-05	–	–	–
G7U G9C G29C A39G U46A A52U U55C C67G C70U	< 1e-05	–	–	< 1e-05
A6C A53U C58U	< 1e-05	–	–	< 1e-05
U45A A53G C71U	0.00623 ± 0.0015	–	0.00381 ± 0.0013	0.00735 ± 0.0025
G7U A12G A48U G63U	< 1e-05	–	–	–
A6G G63C C67A	< 1e-05	–	–	–
G7U C61G C67A	0.000105 ± 4.6e-05	–	–	0.00214 ± 0.00087
A6U C11G C68A C70G	< 1e-05	–	–	< 1e-05
G59U G60U G62A	–	–	< 1e-05	< 1e-05
G7A A39U U49A	< 1e-05	–	–	–
C50G G62U G66C C70A	0.000118 ± 2.5e-05	–	7.6e-05 ± 1.6e-05	–
G7C A36U C67G	< 1e-05	< 1e-05	–	< 1e-05
A48G U49C G60A	< 1e-05	–	< 1e-05	< 1e-05
A6G G7A C11G G32A U45G	< 1e-05	–	–	–

Variant	self-cleavage kobs at 640 uM GlcN6P (glucosamine-6-phosphate [1]) [s⁻¹]	self-cleavage kobs at 10000 uM GlcN6P (glucosamine-6-phosphate [2]) [s⁻¹]	self-cleavage kobs at 160 uM GlcN6P (glucosamine-6-phosphate [3]) [s⁻¹]	self-cleavage kobs at 2500 uM GlcN6P (glucosamine-6-phosphate [4]) [s⁻¹]
A6U G32C C67G	< 1e-05	–	–	< 1e-05
A6G G37A U46A U54A	< 1e-05	< 1e-05	–	–
C50G G59U	0.000241 ± 8.6e-05	–	7.49e-05 ± 1.3e-05	0.000355 ± 0.0001
U56A G60C	< 1e-05	–	< 1e-05	< 1e-05
C58U G63A	–	< 1e-05	< 1e-05	–
A6G A14C G38U	< 1e-05	< 1e-05	–	–
G7A C16U C71A	< 1e-05	–	–	–
U55A A64G C71A	0.000572 ± 0.00013	–	0.000178 ± 4.2e-05	–
C58U C61G G66A C67A	0.000108 ± 3.7e-05	–	5.89e-05 ± 2e-05	–
G60A C61U G63A	–	–	< 1e-05	< 1e-05
G7U G35U G38C	< 1e-05	< 1e-05	–	< 1e-05
A6C U31C G62A	< 1e-05	–	–	–
A6U C34G U47G C67U C68A	0.000407 ± 0.00013	–	–	8.02e-05 ± 2.6e-05
U2C G32U G44A U47G	< 1e-05	–	–	< 1e-05
G43A U56A U57A C61U	–	–	< 1e-05	–
A6G U47G C61A A64U	< 1e-05	–	–	–
A6C C10A C34G C50U U56A	< 1e-05	–	–	< 1e-05
G7U A36G G38U	< 1e-05	–	–	–
G51U G62U A64C	–	–	< 1e-05	–
G7C G13A G43C G51C A52G C58A G66C C68A	< 1e-05	–	–	–
A48U G51U	–	–	< 1e-05	< 1e-05
A52C U65A	< 1e-05	< 1e-05	< 1e-05	< 1e-05
G59U U65A C67U	–	–	< 1e-05	–
A6G G43A C68A	< 1e-05	–	–	–

Variant	self-cleavage kobs at 640 uM GlcN6P (glucosamine-6-phosphate [1]) [s⁻¹]	self-cleavage kobs at 10000 uM GlcN6P (glucosamine-6-phosphate [2]) [s⁻¹]	self-cleavage kobs at 160 uM GlcN6P (glucosamine-6-phosphate [3]) [s⁻¹]	self-cleavage kobs at 2500 uM GlcN6P (glucosamine-6-phosphate [4]) [s⁻¹]
G7U A39C A42C	< 1e-05	–	–	< 1e-05
A53U U54G U55A U56A	–	–	0.000355 ± 7.8e-05	–
G7A G37A G60U A64U	< 1e-05	–	–	–
A6G A53G C61A	< 1e-05	–	–	< 1e-05
A6U C61G C67A	0.000106 ± 3.9e-05	–	–	0.00149 ± 0.00065
G51C G59A	< 1e-05	–	< 1e-05	< 1e-05
A6U A12U G37U	< 1e-05	–	–	–
A6U U31A G35U A42U G62U	< 1e-05	–	–	< 1e-05
U56C U57G C58A	–	–	0.00183 ± 0.0009	–
G63A G66C	< 1e-05	< 1e-05	< 1e-05	< 1e-05
G44U U45G U69A	–	–	< 1e-05	–
G7C A42U	< 1e-05	–	–	–
A6U C8A U31G	< 1e-05	–	–	< 1e-05
G7A C11G G40U	< 1e-05	–	–	–
G7U C50U U65A U69C C71U	6.46e-05 ± 2.1e-05	–	–	–
G51U G60C C70U	< 1e-05	–	< 1e-05	–
U49C A53C	< 1e-05	–	< 1e-05	< 1e-05
U55A C58U	–	7.74e-05 ± 6.6e-06	< 1e-05	–
A6G G35U C50U	< 1e-05	–	–	–
U46G C58G U69G	–	–	6.07e-05 ± 2.5e-05	–
A6C A33G U46C C61G	< 1e-05	–	–	< 1e-05
G60U A64C G66U C70A	–	–	< 1e-05	–
